One assay concerns wildtype mice. Put plainly: Cardiotoxin injury, systemic retro-orbital recombinant annexin A6, Evan's blue dye uptake. In kind it is in vivo, mouse. The conditions noted are these: vs vehicle; for decrease in Evan's blue dye uptake, fluorescence imaging of tibialis anterior: 1 mg/kg retro-orbital 2 hours before cardiotoxin, 3 hours post injury. How it is done:
Cardiotoxin Injury and analysis. […] Additionally, mice were injected intraperitoneally with Evans' blue dye at 5 μl/g body weight (E-2129; Sigma-Aldrich, St. Louis, Mo.) dissolved in phosphate-buffered saline at 10 mg/mL. […] Cardiotoxin injury was performed injecting 20 μl of a 10 μM cardiotoxin (discontinued, Sigma-Aldrich) solution in PBS in tibialis muscles in sedated animals (3% isoflurane, 0.8 l/min O2) 2 hours post pretreatment. Cardiotoxin was released down the midline of the muscle to induce a homogenous area of injury at the center of the muscle. 3 hours post cardiotoxin injection muscle was harvested and frozen in liquid nitrogen.
Immunofluorescence microscopy. Sections (10 μm thick) from the center of frozen-embedded muscles were collected on the cryostat (chamber, −20° C.; sample, −15° C.; catalog number CM1950; Leica, Wetzlar, Germany) for immunostaining. Tissues were fixed with 4% paraformaldehyde for 10 minutes on ice. Block and permeabilization were with 0.1% Triton (catalog number X-100; Sigma-Aldrich), 10% fetal bovine serum, and PBS for 60 minutes. For dystrophin detection, anti-dystrophin (ab15277; Abcam, Cambridge, Mass.) was used at a dilution of 1:100 overnight at 4° C. Sections were PBS rinsed, incubated with secondary antibody goat anti rabbit (A11008, Invitrogen) for 1 hour, PBS rinsed, and mounted in vectashield with DAPI (H-1200, Vector Laboratories). Imaging was performed using a Zeiss Axio Observer A1 microscope (Zeiss, Oberkochen, Germany), using a 10× objective. ZEN software (Zeiss, Jena, Germany) was used for acquiring images. Fluorescence quantitation and muscle area were performed using FIJI (NIH). Surface plots were created in FIJI (NIH). Fluorescence volume was quantified using Imaris Software v9.1.2.
Cardiotoxin Injury and analysis. […] Additionally, mice were injected with Evans' blue dye at 5 μl/g body weight (E-2129; Sigma-Aldrich, St. Louis, Mo.) dissolved in phosphate-buffered saline at 10 mg/mL cardiotoxin injury was performed injecting 20 μl of a 10 μM cardiotoxin solution in PBS in tibialis anterior or gastroc/soleus muscles in sedated animals (3% isoflurane, 0.8 l/min O2) 2 hours post pretreatment. Cardiotoxin was released down the midline of the muscle to induce a homogenous area of injury at the center of the muscle. 3 hours post cardiotoxin injection muscle was harvested.
Evans blue dye uptake. Sections (10 μm thick) from the center of frozen-embedded muscles were collected on the cryostat (chamber, −20° C.; sample, −15° C.; catalog number CM1950; Leica, Wetzlar, Germany). Tissue sections were fixed with methanol for 2 minutes, rinsed and mounted with vectashield with DAPI (H-1200, Vector Laboratories). Imaging was performed using a Zeiss Axio Observer A1 microscope (Zeiss, Oberkochen, Germany), using a 10× objective. ZEN software (Zeiss, Jena, Germany) was used for acquiring images. Fluorescence quantitation, surface plots, and muscle area were performed using FIJI (NIH). For whole tissue dye quantification, whole tissue was dissected, finely minced, weighed, and incubated at 55° C. in 1 mL of formamide for 2 hours. Spectrophotometric absorbance was measured at 620 nm.

The next assay has as its system Anxa6^em1(GFP) myofibers. The assay can be described thus: Laser injury of Anxa6em1(GFP) myofibers pretreated with recombinant annexin A6. It counts as cell-based, mouse. The conditions noted are these: 10-40 μg/ml recombinant protein pretreatment vs control. On the procedure:
Myofiber isolation. Flexor digitorum brevis (FDB) fibers were isolated with methods that were described previously in (Demonbreun and McNally, 2015; Demonbreun et al., 2016b; DiFranco et al., 2009). Briefly, fibers were dissociated in 0.2% BSA plus collagenase type II (Cat #17101, Thermo Fisher Scientific, Waltham, Mass.) for 60 minutes at 37 degrees in 10% CO2. Fibers were then moved to Ringers solution and placed on MatTek confocal microscopy dishes (Cat #P35G-1.5-14-C, MatTek, Ashland Mass.).
Multiphoton laser injury and imaging. Isolated fibers were subjected to laser-induced damage at room temperature using the Nikon A1R-MP multiphoton microscope. Imaging was performed using a 25×1.1 NA objective directed by the NIS-Elements AR imaging software. Green fluorescence protein (GFP) and FM 4-64 were excited using a 920 nm wavelength laser and emission wavelengths of 575 nm and 629 nm were collected respectively. […] Fluorescence intensity and cap area were measured using Fiji (NIH).
For recombinant protein studies, myofibers were isolated from mice as described above. […] Cap size was assessed from acquired images in FIJI. […] Images were acquired and quantitated as described above. FM 4-64 fluorescence at endpoint was measured using FIJI.

The test system of a further assay is wildtype myofibers. The assay can be described thus: Ca2+-dependency of recombinant annexin A6 protection, FM 1-43 uptake after laser injury. It counts as cell-based, mouse. Conditions: 20 μg/ml rANXA6 pretreatment, 0 mM Ca2+ + EGTA compared with 1 mM Ca2+. On the procedure:
Multiphoton laser injury and imaging. Fibers were subjected to laser-induced damage at room temperature using the Nikon A1R-MP multiphoton microscope. Imaging was performed using a 25×1.1 NA objective directed by the NIS-Elements AR imaging software. Green fluorescence protein (GFP) and FM 4-64 were excited using a 920 nm wavelength laser and emission wavelengths of 575 nm and 629 nm were collected respectively. To induce laser damage on isolated myofibers, a diffraction limited spot (diameter approximately 410 nm) was created on the lateral membrane of the myofiber using a 920 nm wavelength laser at 10-15% laser power for 1 s. Time lapse images were collected as follows: one image was collected prior to damage, one image upon damage, then every 8 seconds for 80 seconds (10 images) followed by every 30 seconds for 5 minutes (10 images). At the end of the time lapsed image series, z-stack images were collected at 250 nm intervals through the damaged site on the myofiber directed by the NIS-Elements AR imaging software. The multiphoton was used to acquire data presented in FIG. 5, FIG. 10D and FIG. 19.
For recombinant protein calcium studies, myofibers were isolated from wildtype mice as described above. […] Images were acquired and quantitated as described above. FM 1-43 fluorescence over time was measured using FIJI and plotted overtime as F/F0.

Entries after “also recorded” stand apart in the source; their conditions may differ.

B1: recombinant annexin A6: recombinant human annexin A6 protein with C-terminal HIS tag (5186-A6-050, R&D systems); mouse protein from Northwestern core in one cohort (protein, UniProt P08133 2-673, looked up)
Annexin A6: AKPAQGAKYRGSIHDFPGFDPNQDAEALYTAMKGFGSDKEAILDIITSRSNRQRQEVCQSYKSLYGKDLIADLKYELTGKFERLIVGLMRPPAYCDAKEIKDAISGIGTDEKCLIEILASRTNEQMHQLVAAYKDAYERDLEADIIGDTSGHFQKMLVVLLQGTREEDDVVSEDLVQQDVQDLYEAGELKWGTDEAQFIYILGNRSKQHLRLVFDEYLKTTGKPIEASIRGELSGDFEKLMLAVVKCIRSTPEYFAERLFKAMKGLGTRDNTLIRIMVSRSELDMLDIREIFRTKYEKSLYSMIKNDTSGEYKKTLLKLSGGDDDAAGQFFPEAAQVAYQMWELSAVARVELKGTVRPANDFNPDADAKALRKAMKGLGTDEDTIIDIITHRSNVQRQQIRQTFKSHFGRDLMTDLKSEISGDLARLILGLMMPPAHYDAKQLKKAMEGAGTDEKALIEILATRTNAEIRAINEAYKEDYHKSLEDALSSDTSGHFRRILISLATGHREEGGENLDQAREDAQVAAEILEIADTPSGDKTSLETRFMTILCTRSYPHLRRVFQEFIKMTNYDVEHTIKKEMSGDVRDAFVAIVQSVKNKPLFFADKLYKSMKGAGTDEKTLTRIMVSRSEIDLLNIRREFIEKYDKSLHQAIEGDTSGDFLKALLALCGGED
modifications: C-terminal His tag
notes: recombinant human annexin A6 protein with C-terminal HIS tag (5186-A6-050, R&D systems); mouse protein from Northwestern core in one cohort
Take B1: the “decrease in Evan's blue dye uptake, fluorescence imaging of tibialis anterior” value is reported as 38% in the assay with wildtype mice and “approximately 38%” in the assay with wildtype mice (listed as rANXA6). Moreover, the “reduction in dye uptake, whole tissue spectroscopic analysis of gastrocnemius/soleus” value in the assay on wildtype mice (1 mg/kg retro-orbital pretreatment) is listed as 58%. The “Evan's blue dye uptake, fluorescence imaging” value in the assay with wildtype mice (retro-orbital post-treatment immediately after cardiotoxin) and with wildtype mice (retro-orbital pretreatment 2 hours prior to cardiotoxin) was “significant decrease” each time. The “FM 4-64 dye uptake” value in the assay on Anxa6^em1(GFP) myofibers is reported as “reduction”. The “annexin A6GFP repair cap size” value in the assay with Anxa6^em1(GFP) myofibers is “smaller; also recorded: reduced”. Moreover, the “FM 1-43 fluorescence accumulation at the lesion over time (F/F0)” value was “significantly increased” in the assay on wildtype myofibers and “significantly reduced at 1 mM” with wildtype myofibers (listed as rANXA6).

(Values after patent US20220143136A1, “USE OF ANNEXINS IN PREVENTING AND TREATING MUSCLE MEMBRANE INJURY” (NORTHWESTERN UNIVERSITY, priority 2018, published 2022).)
